We go through four compounds from paper PMC8980893, “A fusion of the Bacteroides fragilis ferrous iron import proteins reveals a role for FeoA in stabilizing GTP-bound FeoB” (The Journal of Biological Chemistry, 2022).

For assay [1], the target named is T1, BfNFeoAB (Bacteroides fragilis, UniProt Q5LFM5).
T1 construct: gene BF9343_1287; N-terminal soluble domain of natural FeoAB fusion (FeoA, linker, G-protein and GDI domains), residues 1-438, without transmembrane region; from E. coli C43(DE3) deltaacrB; monomer, about 53 kDa; PDB 7R7B covers FeoA residues 1-74 only
T1 sequence (Q5LFM5 1-438): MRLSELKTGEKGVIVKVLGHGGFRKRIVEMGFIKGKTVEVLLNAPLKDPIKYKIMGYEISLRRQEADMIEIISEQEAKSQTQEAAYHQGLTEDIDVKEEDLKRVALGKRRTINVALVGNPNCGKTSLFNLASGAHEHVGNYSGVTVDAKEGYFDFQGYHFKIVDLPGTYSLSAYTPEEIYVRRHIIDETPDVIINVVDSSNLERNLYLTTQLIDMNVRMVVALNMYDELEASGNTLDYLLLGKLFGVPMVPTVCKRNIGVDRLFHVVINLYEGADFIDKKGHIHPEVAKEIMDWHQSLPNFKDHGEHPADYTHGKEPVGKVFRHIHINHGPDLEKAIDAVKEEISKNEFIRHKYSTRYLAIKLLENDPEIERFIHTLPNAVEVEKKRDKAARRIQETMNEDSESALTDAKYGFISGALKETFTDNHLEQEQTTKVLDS
As to the kind of experiment: hydrogen-deuterium exchange mass spectrometry. The format is binding. To be noted: 25 mM Tris pD 7.5, 300 mM NaCl, 2% glycerol, 1 mM TCEP, 25 °C.

Assay [2] concerns the target NFeoB region (G-protein domain and GDI domain) of Bacteroides fragilis FeoAB (Bacteroides fragilis).
Assay [3] concerns the target soluble N-terminal domain of Bacteroides fragilis FeoAB (FeoA fused to the N-terminal GTP-binding domain of FeoB) (Bacteroides fragilis). Description: SEC; 120-ml Superdex 200, 4 °C, 25 mM Tris pH 7.5, 300 mM NaCl, 2% glycerol, 1 mM TCEP; after IMAC. On the technique in general: In gel filtration, larger molecules generally elute earlier.

Turning to `Nc1nc2c(ncn2[C@@H]2O[C@H](COP(=O)(O)OP(=O)(O)O)[C@@H](O)[C@H]2O)c(=O)[nH]1` [GDP], the “hydrogen-deuterium exchange mass spectrometry” value in assay [1] (5 mM GDP) is “binding of GDP elicits a mixture of protein protection and deprotection”.

Consider `Nc1nc2c(ncn2[C@@H]2O[C@H](COP(=O)(O)OP(=O)(O)NP(=O)(O)O)[C@@H](O)[C@H]2O)c(=O)[nH]1` [GMP-PNP], for which the “hydrogen-deuterium exchange mass spectrometry” value in assay [1] (5 mM GMP-PNP, nonhydrolyzable GTP analog) is reported as “Binding of the nonhydrolyzable GTP analog with GMP-PNP elicits increases in protein protection”.

In the case of “FeoA domain of Bacteroides fragilis FeoAB (domain or fragment)”, in assay [2], the kcat of GTP hydrolysis by BfNFeoAB (FeoA present on the chain), 1D-31P NMR, 37 °C was determined as 0.00071 s⁻¹ and the kcat of GTP hydrolysis by BfNFeoB-L (FeoA deleted), malachite green assay, 37 °C was 0.037 s⁻¹.

Take “soluble N-terminal domain of Bacteroides fragilis FeoAB (FeoA fused to the N-terminal GTP-binding domain of FeoB) (domain or fragment)”: the stoichiometry N – broadly, the number of molecules, sites or subunits per partner or assembly – in assay [3] turned out to be 3.
